Test results from patent US20130330414A1.

Molecular target: 8.3-TCR on 8.3-CD8+ T-cells of 8.3-TCR-transgenic NOD mice
Assay: cell-based or functional assay

IGRP206-214/K^d pMHC complex, sequence (P01902 22-305, one chain of several): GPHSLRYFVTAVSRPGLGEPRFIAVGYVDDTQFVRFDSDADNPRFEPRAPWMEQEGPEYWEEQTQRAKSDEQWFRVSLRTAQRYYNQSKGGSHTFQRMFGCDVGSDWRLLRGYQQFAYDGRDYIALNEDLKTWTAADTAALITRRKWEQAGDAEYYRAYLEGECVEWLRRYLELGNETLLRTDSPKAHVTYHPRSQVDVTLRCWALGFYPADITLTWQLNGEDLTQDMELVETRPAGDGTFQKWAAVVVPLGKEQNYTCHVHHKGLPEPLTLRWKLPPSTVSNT

“IGRP206-214/K^d pMHC complex (from UniProt Q9Z186 206-214; P01902 22-305) (peptide-MHC)” gave an IFNγ responses (ng/mL); NP IGRP-SFP-011411, Fe3O4 8 nm, pMHC valency 54, 5 × 10^11 NPs/mL of 2.3 ng/mL, an IFNγ responses (ng/mL); NP IGRP-SFP-012011, Fe3O4 8 nm, pMHC valency 14, 5 × 10^11 NPs/mL of 0.2 ng/mL and an IFNγ responses (ng/mL); NP IGRP-SFP-031511, Fe3O4 8 nm, pMHC valency 15, 5 × 10^11 NPs/mL of 0.15 ng/mL. It also gave an IFNγ responses (ng/mL); NP IGRP-SFP-051211, Fe3O4 8 nm, pMHC valency 31, 5 × 10^11 NPs/mL of 0.7 ng/mL, an IFNγ responses (ng/mL); NP IGRP-SFP-100711, Fe3O4 8 nm, pMHC valency 39, 5 × 10^11 NPs/mL of 0.9 ng/mL and an IFNγ responses (ng/mL); NP IGRP-SFP-102912, Fe3O4 8 nm, pMHC valency 11, 5 × 10^11 NPs/mL of 0.4 ng/mL. For the same substance, the IFNγ responses (ng/mL); NP IGRP-SFPM-110512, Fe3O4 8 nm, pMHC valency 8, 5 × 10^11 NPs/mL was 0.03 ng/mL.
